# Test results published in patent US20160017016A1 (AstraZeneca / MedImmune, published 2016).
# *1 amine or outer side, *2 acyl side, *3 side chain or, on linkers, in order; H or OH if unused. Primed or numbered codes have the meaning given here. Where no end group is shown, it is not given here. Side-chain parts run from the residue outwards. [ ]: non-standard residue; d: D form. The star is where a group is joined. PEG4′ = 4 PEG units (K(PEGxpalm): Lys with x PEG units and palmitoyl at epsilon N, C-terminal (PEG)4); γGlu = O=C(O)[C@H](CCC(=O)[*:2])N[*:1]; Palmitoyl = CCCCCCCCCCCCCCCC(=O)*; PEG12′ = not defined here
# B1: g693 (peptide)
# peptide: HGQGTFTSDYSKYLDSK([γGlu-Palmitoyl])RAEDFVQWLV[PEG4′]
# B2: g498 (peptide)
# peptide: HGQGTFTSDYSKYLESK([γGlu-Palmitoyl])RAQDFVQWLV[PEG4′]
# B3: g695 (peptide)
# peptide: HGQGTFTSDYSEYLDSK([γGlu-Palmitoyl])RAQDFVQWLV[PEG4′]
# B4: g828 (peptide)
# peptide: HSQGTFTSDYSKYLDSK([γGlu-Palmitoyl])RAQRDFVAWLV[PEG12′]
# modifications: not fully specified; printed as HSQGTFTSDYSKYLDSBRAQRDFVAWLVZ12
# B5: g694 (peptide)
# peptide: HGQGTFTSDYSKYLDSK([γGlu-Palmitoyl])RAQDFVEWLV[PEG4′]
# B6: g827 (peptide)
# peptide: HSQGTFTSDYSRYLDSK([γGlu-Palmitoyl])RARDFVAWLV[PEG4′]
# B7: g457 (peptide)
# peptide: HSQGTFTSDYSKYLDSRRAXDFVQWLV
# modifications: K(PEG4-palm) at 20; C-terminal PEG4
# Assays:
# [1] = target: human GLP-1 receptor (GLP-1R) (human, UniProt P43220 24-463); test: cell-based or functional assay
# [2] = target: human glucagon receptor (GCGR) (human, UniProt P47871 26-477); test: cell-based or functional assay
# Chain of human glucagon receptor (GCGR) (P47871 26-477): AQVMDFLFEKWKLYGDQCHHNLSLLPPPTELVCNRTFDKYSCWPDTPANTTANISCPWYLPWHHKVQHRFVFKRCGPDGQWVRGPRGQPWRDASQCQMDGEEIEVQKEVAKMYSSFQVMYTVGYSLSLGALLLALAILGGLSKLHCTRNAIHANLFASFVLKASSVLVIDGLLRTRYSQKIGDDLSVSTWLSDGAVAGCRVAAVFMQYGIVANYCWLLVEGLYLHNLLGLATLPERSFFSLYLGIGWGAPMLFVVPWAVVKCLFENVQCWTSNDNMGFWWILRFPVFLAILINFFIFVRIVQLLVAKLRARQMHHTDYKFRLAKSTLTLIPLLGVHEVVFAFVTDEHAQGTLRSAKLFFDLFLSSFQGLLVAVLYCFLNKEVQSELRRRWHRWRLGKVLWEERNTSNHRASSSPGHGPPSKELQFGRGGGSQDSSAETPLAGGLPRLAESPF
Binder,"cAMP activity, GLP1 EC50 nM [1] [nM]","cAMP activity, Glcg EC50 nM [2] [nM]"
B1,0.1,> 2
B2,0.6,2
B3,0.2,4
B4,0.04,0.02
B5,0.07,0.2
B6,0.2,0.04
B7,0.03,0.004
